The target of experiment [1] is Vps32 (Aspergillus nidulans). Nature of the experiment: two-hybrid.
Experiment [2] concerns the target GST::PalC (Aspergillus nidulans). Nature of the experiment: pull-down.

Chain of Vps32 (Aspergillus nidulans) (C8V487 whole entry): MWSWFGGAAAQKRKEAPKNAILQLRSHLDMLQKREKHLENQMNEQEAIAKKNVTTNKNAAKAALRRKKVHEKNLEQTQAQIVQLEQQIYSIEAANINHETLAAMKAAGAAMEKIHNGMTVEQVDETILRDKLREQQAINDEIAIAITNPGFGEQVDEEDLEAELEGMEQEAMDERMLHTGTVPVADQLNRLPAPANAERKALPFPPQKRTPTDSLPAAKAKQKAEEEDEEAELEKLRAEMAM

Regarding PalC Arg442Ala (natural protein), the β-galactosidase activity, % of the wild type (% of the wild type) in experiment [1] is 18.

PalC Arg442His (natural protein): the β-galactosidase activity, % of the wild type (% of the wild type) in experiment [1] worked out at 11.

In experiment [2], zz-Vps32 (natural protein) returned a stoichiometry N (mol of zz-Vps32 per mole of GST::PalC) of 0.9.
